One protein from PMC11399303, “Recombinant expression and characterization of the endochitinase Chit36-TA from Trichoderma asperellum in Komagataella phaffii for chitin degradation of black soldier fly exuviae” (Bioprocess and Biosystems Engineering, 2024) can be followed below.

Substrate in this data set: CC(=O)N[C@H]1[C@H](Oc2ccc3c(C)cc(=O)oc3c2)O[C@H](CO)[C@@H](O[C@@H]2O[C@H](CO)[C@@H](O[C@@H]3O[C@H](CO)[C@@H](O)[C@H](O)[C@H]3NC(C)=O)[C@H](O)[C@H]2NC(C)=O)[C@@H]1O
Briefly: fluorometric 4-methylumbelliferone release, nonlinear regression. Type of data set: biochemical, Trichoderma asperellum. Conditions: 50 mM sodium acetate, pH 4.5, 40 °C, 5-70 µM substrate. The source says: fluorometric 4-methylumbelliferone release, nonlinear regression on Chit36-TA

B1: Chit36-TA (Trichoderma asperellum CBS 433.97) (protein)
chain: QNATCALKGKPAGKVLMGYWENWDGAANGVHPGFGWTPIENPIIKQNGYNVINAAFPVILSDGTALWENDMAPDTQVATPAEMCEAKAAGATILLSIGGATAGIDLSSSAVADKFIATIVPILKQYNFDGIDIDIETGLTNSGNINTLSTSQTNLIRIIDGVLAQMPSNFGLTMAPETAYVTGGSITYGSIWGAYLPIIQKYVQNGRLWWLNMQYYNGDMYGCSGDSYAAGTVQGFIAQTDCLNAGLTIQGTTIKVPYDMQVPGLPAQSGAGGGYMNPSLVGQAWDHYNGALKGLMTWSINWDGAGNWTFGDNLLTRIG
notes: mature protein without native signal peptide, C-terminal His6 (kept), codon-optimized synthetic gene, secreted from Komagataella phaffii BG10, Ni-NTA purified, N-glycosylated (43 kDa)
Broadly, the Km is the substrate concentration at which the rate is half of its maximum. A word on the Vmax: it is the top rate of the reaction or transport when substrate is in excess. As to B1, the Km was determined as 289 µM and the Vmax amounted to 3 µmol/min/mg.
